Experimental data reported in publication PMC3706368.

Molecular target: V5-tagged cdN protein (human) (UniProt Q8TCD5)
Chain of UniProt Q8TCD5 (Q8TCD5 whole entry): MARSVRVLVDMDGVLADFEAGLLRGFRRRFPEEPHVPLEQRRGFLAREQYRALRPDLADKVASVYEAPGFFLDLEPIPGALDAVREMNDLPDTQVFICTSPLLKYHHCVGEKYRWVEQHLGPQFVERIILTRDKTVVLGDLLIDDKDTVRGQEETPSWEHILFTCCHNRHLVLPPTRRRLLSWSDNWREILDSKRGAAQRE

myc-tagged full-length NS3/4A protein (natural protein)
5'(3')-deoxyribonucleotidase activity (dephosphorylation of dUMP) in lysates of HuH7 cells with stable HCV NS3/4A expression, compared with cells with stable EGFP expression: 70%
